Assay: label from the status in PepcDB records
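Also: failed if final PepcDB status was selected cloned or expressed and not failed if soluble or beyond.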

Sequence	protein production
MRPVLLLCCLFLSATAQAEDCSPQTSVGSWCELPLAALHPTQQNVGLLQVEDDQAKLAGKKPKALERYLRKKEIPVVIGPGGRFYLTDRHHLSSALWRLDPKQGVPVKVIGRLPQASDFWEKMQENHWVWLHDARGAEIPPEALPDALAGLGDDPYRALAGYAEDENAFDKDRQSYFIEFHWARYFGERMHWRPISRATLPDDLKQALRLACEPAARELPGYRQDCPHLEHHHHHH	failed
MGSVVHAEITEIKPFELRVNFGNSFRGRIHITEVLVNDASTSDEPFAKFRVGQSISARVVAKPCHTDIKKTQLWELSVKP	not failed
RKILDSKAIDLMNALMRLNQIRPGLQYKLLSQSGPVHAPVFTMSVDVDGTTYEASGPSKKTAKLHVAVKVLQAMGYPTGFDADI	not failed
MSTSSTQHAAPAFTGFSSSAQAMSLVAFTTVATITLLLCVMTGPDRDDLEEFYTGYGSLSPMRNGLAIAGDYISAATVLGTGGVIALTGYDGVVLALSTALSLMLLMFLLAEPLRNAGQFTMGDALARRMPGRAVRVTACVVTIAALLPLMLVQLAGTGDLLSFILGFSNDTLKTGCIIGLGALMISYAAIGGMKGTALIQIMKIVMLLGSGAVVAVLILHRFDWDPGALFSAAAAHSGAGPAFLRSGLEFAGGPNPRLDMITTELTVVLGGGCLPHVTMRMYTANSARQVRRSMSWAVPAVALFVLVITVVGFGATALVGREAIAAADPQGNTAYLLGSRAAFGPDVSSAETLLFTTVTTALFLTLLASVAGMILACANSLAHDVFAARVQEMSPRREMTLARLSALAVGVPTILLATLVHHRSLQPLVTLSFCIGASAIAPALVYGLFWRRYTRTGLLCTLIGGTLSVVLLLPGTNLVTGSPAAAFPDADFNWFPFTTTGLATIPLGFLLGWLGTLLSGRQKAEAQRRQYEAVEGWILAGAVRRSG	failed
LEAVAPERPRCAYCSAEASKRCSRCQNEWYCCRECQVKHWEKHGKTC	not failed
MNPIKPPFTLNQYFAAWFVHVFTASAACIGVFSLYKIYQHDYVFALWLMAITVFIDAVDGSLARLVHVKSVLPKIDGALLDNIVDYLNYVITPCFFLLVKPGMLPADYVVPITAAITITSAYQFCQDDAKTPDHFFKGFPCYWNITVFYMYIFNTSMIVNTVLLSLFCVLIFIPVKYVYPSRLDYLTESRVLKILMHCCSALYGISSFCLLVNYPETNKLWVSLSLGYVGMYLFLSFYRTYYPMFKAKITANNKD	failed
MTRTMSFHKNCELCTTAGGEILWQDALCRVVHVENQDYPGFCRVILNRHVKEMSDLRPAERDHLMLVVFAVEEAVREVMRPDKINLASLGNMTPHVHWHVIPRFKRDRHFPNSVWGETKRESLPQALDQGSTTALKKAISVRLDQGEPVFMGM	not failed
DTMCLAIPGQVIEIREENGLKMGTVDISGALTKACLEYVPEIAIGQYTIVHAGFALKIIDEKEAAESLKLWDELIKSG	not failed
MSFTWRKKMDAKTNNAISKSMMFFHWVIGLGMIAVLISGLVMDDESNNLLFNAHMSFGLLVLALSVPRLVGRLIGGMPKPMTERSKFESIAAAVVMYSLLALTVVLPLSGIAVSVGEGYGLSLFGFELVSSGREIHMLKELGEGIHEFSGEALLPFLLVLHLGASFMHHFIKQDGTLLRMLGKA	failed
MTGKEEISSKYDDYSLKEVPKDSRYGFFNVFLVFSSVYGAIAVIWAGGALGYGLTFSQAIIAVLSGTVVLGILGSLTAAVGAYSGLSTYVMWRHPLGRWGGKIAGLLLITITTGIGWYAVETWLFGIVMSEIFPNNPFFSVGVAAIWGGILMTIMTYVGYRMLSFLSYFTIPFHIWLIAIGIAIVLALKGGFHTVMAAVPTSHMSLLDGISATIGLYSAGTIISPDISRFAKSAKDAGYAWFAHIIFLYPFLILGGVAIVLATGSYLITNAMLELGMGVGVLLIIVFGQFIINTDNLYSGSLSLVNLIPMRREIASVINGVIGTAIAAYVGFSAGSSITPFENFISLLGDFLPAMGGIVLADFYIVKKYVNKIQDPHKRYEFVPNNKYYNINIAGILALALGSIIGYFVNAGIPAINSLVTGFLSYIIIYYIIKAMGKSPEILPFNYEGGILR	failed
MLQKPVQLLLWVAICLLVLLTVYVFFMLDMLWSPFWLVIKTIFIPLIISIFISYLLLPVTEWLHGKGLPRTLSILVIYVLFFGGIGWALYKGVPVLIVQLTDLSENIPMFAETYNGLLLHVHNHTDDWPDGMHHRIDKMIRQTEAFFAGTIEGAISGIRNVLDYFLIAATIPFLVFYMVKDIELMKKTVWYLTPKSWRKRGSAFLRDVDDSLGDYIRGQLLVCLILGVIAGISFWVFGLPYPLILGLISGVTNVIPYFGPFIGAVPALLIAMTISVKAVLVVVITVFILQFMEGNILSPFIVGRSLKMHPVVIMLALLAGGELAGIVGMILAVPATAVLKVMMIHFLRMRTEH	not failed
VRLRNLVESDRERLLIWRNSPDVSAYMYSDHKIGHEEHDHWFDVARHDPRRRYWIIEADGEPVGLANLADIDLVHRRCAWAYYLASPKVRGLGVGSFVEFQIIEYVFNQLHLNKLWCEVLISNESVWRLHELYGFQREALFRQHVMKQGHEVDVIGLGLLASDWAARR	failed
MNGGTFTTGKEKERAGIYFNFKTTAQERVSLSERGTVALPVASSWGEAKTFVSISSVEDLNKKVGLSIDDPSLLLLREAKKNAKTVLMYRLTEGVRASADIAEGVKATAVYGGTKGNDIIIRINQNVLDANSFDVTTYMDESEVDKQTVKKAEELTANGYVTFTGTGDLSSTIPLTGSEGDTAAETLNASAGIRLSGGTDKAPVNSDYTDFLAAAETESFDVIALPVAEGDQLKATFAAFIKRLRDGQGQKVQGVTANYAGDYEGIINVTEGVLLEDGTEVTPDKATAWVAGASAGATFNQSLTFVEYEGAVDVLHRLDHDTIVERLGKGEFLFTFDARDKSVSVEKDINSLVTFTAEKNKKFAKNKIVRVLDAVNNDLTRELKALIKSRKGSGSDIPASEDGLQYVKTMITQYMTTLQDAGGITGFDSDEDITISMNEDRDGFLIDLLYSLSTQQKNSTLMWRLEHHHHHH	not failed
MILINKRAEKQDYQTILAIWEKSVIVTHDFLTAEDRQFYKEQIPLFLDNVELFLWFAGEEVIGFSGTSERELDMLFLDPVATGNGYGSQILGWLIENKRINLVDVNEQNENATRFYLKHGFVVSSRSDLDGFGKPYPILQLQLKERVNGV	not failed
MENIEYVFEDVVRIYDTDAQGIAHYAAYYRFFTNTIEKFIKEKVGIPYPIVNENLWFVIAESHAIYHRPVKLGDKLTVLLNPKILSNKTIKFEFKVLKDGELTTEGYVIQIAINPKIWKSTEMPKEIMDKLSIK	not failed
MVEPSLVLYGAPYERAVEVLEETLRETGARYALLIDRKGFVLAHKEALWAPKPPPLDTLVTLVAGNAAATQALAKLLGEARFQEEVHQGERMGLYVDEAGEHALLVLVFDETAPLGKVKLHGKRAAEALARIAEEALANPPRLALDTEYREGAEALLDDLLRN	not failed
MSPEGAERYDRNCDHQFQKGHVLIEMMGIKKGDFVLDVGCGTGRQALNVAGIIGPAGKLTGIDPSSYRIELARKKFEGDSSGNVRFLVRQAENLQDIPDNSINHAYFCSSFHWVDDKKTALNEIFRVLRPGGKVGMTTLDRNSPNTMKALIDPILAKFGIERRHEWHRGMKKVTAPELHDLLSGAGFTSISIEPRAVPRKYNSPEEFLQHPEEKDSSRGILRDISNETLEKLRQEITEEFRKAQTPEDIGFGNITLFAIATKAQEGLEHHHHHH	failed
MNIQSILSDKIKQAMILAGADQSCDALIRQSGKPQFGDYQANGIMAAAKKLGLNPREFAQKVLDNLQLSDIAEKLEIAGPGFINIFLNPTWLTTEISAALSHK	failed
MWPDRRLIDLFKTEFPIVLAPMAGVMDAELVIAAAQGGALGSLPCAMLSAEKAREQVGLIRQRVKAPVNMNFFCHTPVDLTPEAEARWKQRLAGYYREHGLDPAAPISAANRAPFDAAFCEVVEELKPDVVSFHFGLPEQELLKRVKAAGSLVISSATTVKEAVWLERHGADAVIAQGAEAGGHRGMFLTDKIAEQPGTFALVPQVADAVKVPVIAAGGIADGRGIAAAFALGASGVQIGSAYLRCPESKVSAAGRAALAEGRDDSTVITNVMTGRPARGVQNRLMREAGPISPDAPPFPHAATALGPLKAAAEKQGRVDFTNLWAGQAIALGRELPAAELTRDLAKSALARMKALAG	failed
MAGFMKNAMSYLGMSDVAEGEDDFEDDVDTGETSFDSDHSVTPMPSSSASASTPSAPREQSNPFQGGRVSRITTIHPKTYDDAQMVGRAIRDGIPVVLNLTGVAEAVAYRIVDFSAGVVFGVRGSIERVTPRVFLLSPAQVNIKVEEPEDKGPAHDLFAD	failed

From a protein production outcome set (Wang et al. 2014)
